Biological target: TMIEdel80–100-HA (UniProt Q8K467)
Experiment: co-IP

B1: MYC-TMC1 (natural protein)
chain: MLQIQVEEKEEDTEESSSEEEEDKLPRRESLRPKRKRTRDVINEDDPEPEPEDEETRKAREKERRRRLRRGAEEEEEIDEEELERLKALLDENRQMIATVKCKPWKMEKKIEVLKEAKKFVSENEGALGKGKGKKWFAFKMMMAKKWAKFLRDFENFKAACVPWENKIKAIESQFGSSVASYFLFLRWMYGVNMVLFVLTFSLIMLPEYLWGLPYGSLPRKTVPRAEEASAANFGVLYDFNGLAQYSVLFYGYYDNKRTIGWLNFRLPLSYFLVGIMCIGYSFLVVLKAMTKNIGDDGGGDDNTFNFSWKVFCSWDYLIGNPETADNKFNSITMNFKEAIIEERAAQVEENIHLIRFLRFLANFFVFLTLGASGYLIFWAVKRSQEFAQQDPDTLGWWEKNEMNMVMSLLGMFCPTLFDLFAELEDYHPLIALKWLLGRIFALLLGNLYVFILALMDEINNKIEEEKLVKANITLWEANMIKAYNESLSGLSGNTTGAPFFVHPADVPRGPCWETMVGQEFVRLTVSDVLTTYVTILIGDFLRACFVRFCNYCWCWDLEYGYPSYTEFDISGNVLALIFNQGMIWMGSFFAPSLPGINILRLHTSMYFQCWAVMCCNVPEARVFKASRSNNFYLGMLLLILFLSTMPVLYMIVSLPPSFDCGPFSGKNRMFEVIGETLEHDFPSWMAKILRQLSNPGLVIAVILVMVLTIYYLNATAKGQKAANLDLKKKMKQQALENKMRNKKMAAARAAAAAGGQ
- percent reduction of co-IP against TMIE-HA: 80%

Source: publication PMC7351599
